# From patent publication US20250051463A1 (AstraZeneca / MedImmune, published 2025)
# T1: mouse IL3Rα expressed on 293 cells (mouse, UniProt P26952 17-396)
# T1 construct: whole, on cells; also called mouse CD123
# T1 sequence (looked up): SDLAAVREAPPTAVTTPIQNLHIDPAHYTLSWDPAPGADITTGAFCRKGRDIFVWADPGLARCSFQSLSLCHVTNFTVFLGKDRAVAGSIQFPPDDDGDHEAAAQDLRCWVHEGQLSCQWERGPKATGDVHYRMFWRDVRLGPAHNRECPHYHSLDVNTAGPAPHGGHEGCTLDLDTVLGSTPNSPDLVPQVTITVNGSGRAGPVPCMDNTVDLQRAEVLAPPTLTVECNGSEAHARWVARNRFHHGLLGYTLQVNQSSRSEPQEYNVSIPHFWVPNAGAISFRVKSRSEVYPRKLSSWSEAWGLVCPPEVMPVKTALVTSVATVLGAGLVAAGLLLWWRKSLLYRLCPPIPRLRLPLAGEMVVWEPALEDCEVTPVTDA
# T2: GM-CSFRα (Homo sapiens (Human), UniProt P15509 23-320)
# T2 construct: also called GM-CSFRa; GM-CSFRa sample; not shown: His tag
# T2 sequence: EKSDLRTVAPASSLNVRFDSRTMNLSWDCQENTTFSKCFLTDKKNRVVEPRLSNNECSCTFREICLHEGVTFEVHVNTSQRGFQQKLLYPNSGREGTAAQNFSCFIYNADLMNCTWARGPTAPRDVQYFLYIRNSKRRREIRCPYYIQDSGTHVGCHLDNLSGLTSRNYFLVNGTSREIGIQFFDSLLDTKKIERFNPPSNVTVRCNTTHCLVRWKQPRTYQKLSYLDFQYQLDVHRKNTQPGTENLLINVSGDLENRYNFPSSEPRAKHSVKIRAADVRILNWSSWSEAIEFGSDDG
# B1: HT12-GL antibody (antibody, human IgG1, kappa, V domains shown)
# VH: EVQLLESGGGLVQPGGSLRLSCAASGFTFNIYAMTWVRQAPGKGLEWVSGISAGGDSTYYADSVKGRFTISRDNSKNTLYLQMNSLRAEDTAVYYCAKDRGYYYGMDVWGQGTTVTVSS
# VL: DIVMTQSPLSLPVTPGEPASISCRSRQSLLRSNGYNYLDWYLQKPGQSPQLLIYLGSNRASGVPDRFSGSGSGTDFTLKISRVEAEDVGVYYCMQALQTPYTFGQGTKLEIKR
# notes: elsewhere unlabeled with a secondary antibody; also called HT12-GL mAb; CD123 mAb
# Legend:
# [1] = molecular target: T3, human CD123 (IL3Rα) on cells (human, UniProt P26951 19-378); assay: flow cytometry on THP-1 CD123 (no dox) cells, Geo MFI
# T3 construct: whole, on cells; also called human IL3Rα expressed on 293 cells; AD293hIL3Rα
# T3 sequence (P26951 19-378): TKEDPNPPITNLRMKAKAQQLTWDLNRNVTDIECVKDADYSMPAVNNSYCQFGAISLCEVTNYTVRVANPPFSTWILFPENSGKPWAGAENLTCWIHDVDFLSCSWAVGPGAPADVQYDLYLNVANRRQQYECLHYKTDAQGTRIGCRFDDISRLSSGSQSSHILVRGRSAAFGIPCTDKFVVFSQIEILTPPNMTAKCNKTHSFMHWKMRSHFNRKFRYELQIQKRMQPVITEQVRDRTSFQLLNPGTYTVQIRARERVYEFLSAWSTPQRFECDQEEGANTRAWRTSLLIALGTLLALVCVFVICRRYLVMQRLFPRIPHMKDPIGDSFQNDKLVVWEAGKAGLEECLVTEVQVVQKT
# Procedure: (§1) THP-1 cells were transfected with an IL3Rα expression construct under the control of a doxycycline inducible promoter. THP-1 cells were maintained in DMEM containing 10% heat-inactivated fetal bovine serum (FBS) and were cultured in a humidified atmosphere of 5% CO₂ and at a temperature of 37° C. […] (Dox) inducible cells were stimulated with 1 μg/ml dox overnight before use. […] On the day of plating, cells were spun down at 1500 rpm for 3 minutes, counted, and resuspended to a final concentration of 1×10⁶ cells/ml. Two hundred μl of cells were plated in wells of 96 well microtiter plates. The plates were spun down at 1500 rpm for 3 minutes and flicked to remove media. One hundred μl of FACS buffer (PBS+2% FBS) was added to each well. […] The antibody concentration started at 12 μg/ml followed by six 1:3 dilutions (no antibody control was also run). The plates were incubated at 4° C. for 30 minutes. Following incubation, the plates were washed 3 times by spinning down at 1500 rpm for 3 minutes, flicked and 100 μl of FACs buffer was added. Alexa 647 secondary antibody (goat anti-human IgG (H+L)) was added at 1:1000 dilution in 100 μl followed by 30 minute 4° C. incubation. The plates were washed as above. […] Cells were analyzed on a BD Bioscience LSRII by collecting 10,000 cells. Flow data was analyzed in FlowJo software.
# [2] = molecular target: T3, human CD123 (IL3Rα) on cells; assay: flow cytometry on EOL-1 cells, geometric mean
# Procedure: On the day of plating, cells were spun down at 1500 rpm for 3 minutes, counted, and resuspended to a final concentration of 1×10⁶ cells/ml. […] Plates were incubated at 4° C. for 30 minutes. Following incubation plates were washed 3 times by spinning down at 1500 rpm for 3 minutes, flicked and 100 μl of FACS buffer were added. […] Flow data was analyzed in FlowJo software.
# [3] = molecular target: T3, human CD123 (IL3Rα) on cells; assay: flow cytometry on THP-1 CD123(+dox) cells, Geo MFI
# Procedure: as §1
# [4] = molecular target: T1, mouse IL3Rα expressed on 293 cells; assay: flow cytometry with Alexa 647 labelled antibody on Ad293 cells expressing mouse IL3Ra, geometric mean
# Procedure: AD293 cells were maintained in DMEM (Dulbecco's Modified Eagle Medium) containing 10% heat-inactivated fetal bovine serum (FBS) and were cultured in a humidified atmosphere of 5% CO2 and at a temperature of 37° C. On the day of plating, cells were spun down at 1500 rpm for 3 minutes, counted, and resuspended to a final concentration of 0.3×10⁶ cells/ml. Two hundred μl of cells were plated to wells of 96 well microtiter plate. Plates were spun down at 1500 rpm for 3 minutes and flicked to remove media. One hundred μl of FACs buffer (PBS [Phosphate Buffer Saline]+2% FBS) was added to the wells. Plates were then spun again as above followed by addition of primary antibody in 100 μl of FACS buffer. […] Antibody concentration started at 12 μg/ml followed by six 1:3 dilutions (no antibody control was also run). Plates were incubated at 4° C. for 30 minutes. Following incubation plates were washed 3 times by spinning down at 1500 rpm for 3 minutes, flicked and 100 μl of FACS buffer were added. Following a final wash, 100 μl of FACS buffer containing live/dead DAPI (diamidino-2-phenylindole) stain was added to the plates. […] Flow data was analyzed in FlowJo software.
# GM-CSFRα = molecular target: T2, GM-CSFRα; assay: biolayer interferometry, HT12-GL on the sensor, GM-CSFRa-His in solution
# Procedure: Biolayer interferometry binding experiments were performed using an Octet RED384 instrument, with all measurements made at 30° C. AHC biosensor probes were soaked in kinetics buffer (PBS pH 7.2+0.02% Tween-20, 0.1% BSA, 0.05% sodium azide) for 10 minutes, followed by baseline signal measurement in kinetics buffer for 60 seconds. […] For binding to hIL3-Rα, the antibody-loaded biosensor tips were dipped in binding buffer for 60 sec (baseline), followed by immersion in a solution containing dilutions of hIL3-Rα (10-0.16 μg/mL) for 300 sec (association), and subsequent immersion in kinetics buffer for 400 sec (dissociation). For binding to hIL5-Rα and GM-CSFRa, all steps were the same except the concentration of antigen was increased (50-1.56 μg/mL) and the dissociation step was decreased to 300 sec. The signal from a buffer only reference sample was subtracted, and all curves were fit with a 1:1 binding model to determine KD values.
binder,measurement,setting,value
B1,EC50 (read off the curve),[1],~0.2 µg/mL
same,EC50 (read off the curve),[2],~0.04 µg/mL
same,EC50 (read off the curve),[3],~0.3 µg/mL
same,binding result,[4],no binding (tested: log 1.1 ug/ml (about 12 ug/ml))
same,binding result,GM-CSFRα,no binding
